Data reported in patent US20170369552A1.

Columns and labels:
[1] = target: VEGF165, a splice variant of VEGF-A (UniProt P15692); assay: cell-based or functional assay
[2] = target: VEGF165, a splice variant of VEGF-A (UniProt P15692); assay: direct binding ELISA; VEGF165 coated, anti-human IgG Fc-HRP detection
[3] = target: VEGF165, a splice variant of VEGF-A (UniProt P15692); assay: competitive binding in solution; 5 pM VEGF165 overnight, free VEGF165 by Quantikine sandwich ELISA

VEGF165, a splice variant of VEGF-A, sequence (P15692 other isoform, or with tags, fused parts or gaps mutant): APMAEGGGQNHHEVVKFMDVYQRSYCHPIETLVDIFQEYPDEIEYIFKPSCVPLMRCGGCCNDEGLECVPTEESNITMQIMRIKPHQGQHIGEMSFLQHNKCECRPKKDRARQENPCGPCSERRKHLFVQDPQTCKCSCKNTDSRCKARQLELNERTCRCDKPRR

Substance: Positive Control 1 (synthesized VEGF Trap) (from UniProt P17948 129-230; P35968 225-327) (Fc fusion)
- inhibition of VEGF-dependent HUVEC proliferation, IC50 [1]: 0.068 nM
- EC50 [2]: 0.087 nM
- IC50 [3]: 5.17 pM
